B1: Histone deacetylase 3 (Homo sapiens), O15379 (parent)
chain: MAKTVAYFYDPDVGNFHYGAGHPMKPHRLALTHSLVLHYGLYKKMIVFKPYQASQHDMCRFHSEDYIDFLQRVSPTNMQGFTKSLNAFNVGDDCPVFPGLFEFCSRYTGASLQGATQLNNKICDIAINWAGGLHHAKKFEASGFCYVNDIVIGILELLKYHPRVLYIDIDIHHGDGVQEAFYLTDRVMTVSFHKYGNYFFPGTGDMYEVGAESGRYYCLNVPLRDGIDDQSYKHLFQPVINQVVDFYQPTCIVLQCGADSLGCDRLGCFNLSIRGHGECVEYVKSFNIPLLVLGGGGYTVRNVARCWTYETSLLVEEAISEELPYSEYFEYFAPDFTLHPDVSTRIENQNSRQYLDQIRQTIFENLKMLNHAPSVQIHDVPADLLTYDRTDEADAEERGPEENYSRPEAPNEFYDGDHDNDKESDVEI

Variants of: B1
Conditions: with ncor2_human NCOR2, Q9Y618
Sequence of ncor2_human NCOR2, Q9Y618 (Q9Y618 whole entry): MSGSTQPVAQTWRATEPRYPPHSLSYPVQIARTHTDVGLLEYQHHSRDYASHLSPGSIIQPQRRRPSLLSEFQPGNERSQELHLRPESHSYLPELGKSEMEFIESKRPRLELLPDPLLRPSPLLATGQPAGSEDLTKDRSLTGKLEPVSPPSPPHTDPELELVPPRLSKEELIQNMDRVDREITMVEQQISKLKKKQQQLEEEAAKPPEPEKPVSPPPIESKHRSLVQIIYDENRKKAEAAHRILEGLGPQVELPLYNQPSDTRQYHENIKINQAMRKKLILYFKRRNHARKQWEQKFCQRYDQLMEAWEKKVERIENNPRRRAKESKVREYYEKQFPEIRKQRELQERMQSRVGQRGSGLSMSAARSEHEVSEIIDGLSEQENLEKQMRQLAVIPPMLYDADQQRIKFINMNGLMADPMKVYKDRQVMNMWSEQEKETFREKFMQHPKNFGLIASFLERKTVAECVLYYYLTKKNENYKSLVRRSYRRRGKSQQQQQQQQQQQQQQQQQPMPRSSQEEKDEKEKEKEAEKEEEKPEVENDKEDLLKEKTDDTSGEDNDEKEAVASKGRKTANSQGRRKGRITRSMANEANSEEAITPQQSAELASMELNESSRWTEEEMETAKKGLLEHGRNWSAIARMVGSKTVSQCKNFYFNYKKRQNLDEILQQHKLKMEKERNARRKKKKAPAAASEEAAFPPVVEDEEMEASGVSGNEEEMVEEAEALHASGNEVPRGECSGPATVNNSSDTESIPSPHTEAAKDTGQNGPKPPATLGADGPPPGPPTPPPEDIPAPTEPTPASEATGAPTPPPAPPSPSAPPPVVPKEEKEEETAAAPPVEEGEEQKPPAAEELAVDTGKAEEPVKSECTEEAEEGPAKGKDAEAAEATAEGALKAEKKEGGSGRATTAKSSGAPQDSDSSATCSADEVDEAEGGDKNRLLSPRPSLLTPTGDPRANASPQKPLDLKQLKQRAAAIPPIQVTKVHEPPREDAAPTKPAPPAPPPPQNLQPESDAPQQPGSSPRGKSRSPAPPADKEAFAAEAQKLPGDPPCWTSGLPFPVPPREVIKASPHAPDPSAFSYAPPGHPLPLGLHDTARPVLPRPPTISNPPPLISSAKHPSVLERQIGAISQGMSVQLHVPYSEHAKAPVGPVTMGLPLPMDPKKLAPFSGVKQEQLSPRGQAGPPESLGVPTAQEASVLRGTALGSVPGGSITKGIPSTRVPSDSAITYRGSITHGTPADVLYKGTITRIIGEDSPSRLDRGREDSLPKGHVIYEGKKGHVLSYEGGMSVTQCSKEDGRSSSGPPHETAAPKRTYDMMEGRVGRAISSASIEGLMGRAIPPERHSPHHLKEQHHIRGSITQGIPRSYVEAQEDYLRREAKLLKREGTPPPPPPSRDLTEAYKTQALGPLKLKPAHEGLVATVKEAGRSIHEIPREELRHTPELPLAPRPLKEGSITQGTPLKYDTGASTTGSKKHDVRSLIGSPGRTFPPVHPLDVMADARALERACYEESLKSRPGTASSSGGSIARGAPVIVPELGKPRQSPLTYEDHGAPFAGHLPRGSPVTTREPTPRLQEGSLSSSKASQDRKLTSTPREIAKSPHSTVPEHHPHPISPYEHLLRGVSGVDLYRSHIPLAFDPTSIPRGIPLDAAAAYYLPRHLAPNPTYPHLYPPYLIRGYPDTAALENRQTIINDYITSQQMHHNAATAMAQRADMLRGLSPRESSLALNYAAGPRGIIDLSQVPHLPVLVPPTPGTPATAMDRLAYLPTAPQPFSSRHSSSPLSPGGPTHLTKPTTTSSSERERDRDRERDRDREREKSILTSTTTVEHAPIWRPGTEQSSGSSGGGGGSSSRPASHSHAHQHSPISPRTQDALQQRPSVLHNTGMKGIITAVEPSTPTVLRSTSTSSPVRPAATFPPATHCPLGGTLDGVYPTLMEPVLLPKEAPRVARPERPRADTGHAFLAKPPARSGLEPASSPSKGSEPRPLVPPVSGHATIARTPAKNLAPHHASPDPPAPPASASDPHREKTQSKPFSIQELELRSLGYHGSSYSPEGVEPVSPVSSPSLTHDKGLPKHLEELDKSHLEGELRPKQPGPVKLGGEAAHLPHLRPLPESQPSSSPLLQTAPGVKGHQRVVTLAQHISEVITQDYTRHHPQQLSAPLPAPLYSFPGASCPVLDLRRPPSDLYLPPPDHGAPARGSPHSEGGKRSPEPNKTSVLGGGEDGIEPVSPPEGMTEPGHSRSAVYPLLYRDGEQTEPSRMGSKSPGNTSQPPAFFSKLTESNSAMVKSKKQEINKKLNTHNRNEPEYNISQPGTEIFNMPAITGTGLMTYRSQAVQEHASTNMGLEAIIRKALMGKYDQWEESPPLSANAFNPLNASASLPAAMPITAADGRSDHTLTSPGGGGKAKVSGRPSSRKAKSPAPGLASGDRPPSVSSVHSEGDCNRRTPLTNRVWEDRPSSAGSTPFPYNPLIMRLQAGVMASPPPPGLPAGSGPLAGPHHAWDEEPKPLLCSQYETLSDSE

effect of a mutation on the interaction	Variant
disrupting interaction	H17C;G21A;K25I
disrupting interaction	H17C;G21A;K25I;R265P;L266M
disrupting interaction	R265P;L266M
disrupting interaction	R265P

Variants of: B1
Conditions: with ncor2_human NCOR2, Q9Y618
Remark: another data set of the same source

effect of a mutation on the interaction	Variant
disrupting interaction	H17C;G21A;K25I;R265P;L266M
